Laboratory results from PMC6316451.
Read-outs that look alike come from different tables or passages of the source.

Experiments:
[1] = target: HIV-1 capsid protein CA N21C/A22C (HIV-1 NL4-3); assay: cross-linking; engineered disulfide cross-links read by non-reducing SDS-PAGE; after assembly: purified protein at 1 mg/mL (also about 4 and 10 mg/mL) dialyzed into 50 mM Tris-HCl, pH 8.0, 1 M NaCl overnight at 4 °C, no reductant
[2] = target: HIV-1 capsid protein CA N21C/A22C (HIV-1 NL4-3); assay: as above; remark: listed apart in the source

For “HIV-1 capsid protein CA N21C/A22C (natural protein)”, the stoichiometry N [1] was 5 and the stoichiometry N [2] was 6.
